Measured values published in the DeepSol protein solubility set.

test: soluble on expression in E. coli; label from the status in PepcDB or PDB records

Row | Sequence | soluble on expression in E. coli
1 | SPMANSGPLCCTICHERLEDTHFVQCPSVPSHKFCFPCSRESIKAQGATGEVYCPSGEKCPLVGSNVPWAFMQGEIATIL | soluble
2 | MGSDKIHHHHHHMQLPFIAVDYVISVGLCAASTNPSQDKRIKKITVLAVSGKGDLPISFIENQALLDEAAMLTCMAYVDLNPIRAQLADTPEQSDHTSIQLRIRAALKGEQPKNLLPFIVNERDNQPNGIAFLLSDYLELVDDTGRIIRSDKRGAISENSAKLLARLNIPHDNWLKLTTEFGKLFRGPVGTLQELTDYCEHLEKRRRHFAKCCLHFHSN | not soluble
3 | RTEAGDAYYSKFANNTPLPALMVSRKKFGSSYVYDKSYKTWDVPIAEQMEQKAKINIFAVAEYTDTQKIKVTVKGKILEGNTLPKSMVQVYLLEDKLIAPQVDGNTTVENYEHNHVLRGAVNGIWGEEFVNLKDYLYTYAVEPLSGMSFVAENYSIVAFVYDVQTFEVYDVVHVKINPQSDGK | soluble
4 | GPGSMTPTRAQLAAFVDHTLLKPEATAADVAALVTEAAELGVYAVCVSPPMVPAAVQAGAGVRVASVAGFPSGKHVSAVKAHEAALAVASGAAEIDMVIDVGAALAGDLDGVRADIAAVRGAVGGAVLKVIVESSALLALADEHTLVRVCRAAEDAGADFVKTSTGFHPSGGASVRAVALMAEAVGGRLGVKASGGIRTAADALAMLDAGATRLGLSGTRAVLDGLG | soluble
5 | MLKVDKVFPWETFRGKLESPYSKKPKWDVILLLKVLLIKFVYEISWLEGEIRDSKMFMKFLGGKVHQKSILLLQETVVDEGERMWTTLMTQQGLRQGDLEHHHHHH | not soluble
6 | MSLATLDVNPELYQAQLADKIARLKAMFVDYSMPELEVFESPVANYRMRAEFRIWHEGDDMYYIMFNQETREKYRVDQFPAASRLINDLMPLLMDAMKGSPILRHKLFQVDFLSTLSGEILVSLLYHRQLSEEWITAAQALKQRLNDEGFNLNLIGRARKMKVVLDRDYVVENLQVNGQPYVYKQVENSFTQPNAKVAEKMLEWAVDCTQESKGDLLELYCGNGNFSLALAQNFERVLATELAKPSVEAAQFNIAANQIGNVQIIRMSAEEFTQAMEGKREFNRLKDAGVDLQSYRCNTIFVDPPRSGMDIDTCKMVQGYERILYISCNPETLQENLQVLGETHQVVRFALFDQFPYTHHMEAGVMLERKKEGHHHHHH | soluble
7 | MTAPSLLIAGCGDIGSRLATRLLPHGWTVHGLRRTVSELPAGVHGVAGDLFDTRKPALWPAAALDYVVYCATPSKRDEAGYRMAYVEGLRNVLSWLEQTGQRPKRLIFVSSSGVYGQQNGEWVDEDSITEPANYTGTVMLEAEQLALNSGLPATAVRLTGIYGPGRSDLSNRVRQGHSVRIDPPVYANRIHADDAASLLEHLLQADQRGVALESCYLGVDDDPAALADVVAWIREYLGVTEWSEEVSVQRVGSKRCSNARARALGWTPMYPDYRAGYAALLG | not soluble
8 | MQGLTATLLPFGATLAKLTFPDKNGKNQDLVLGFDTIDEFEKDAASIGKTVGRVANRIKNSTLHFDGKQYTMTPNNGPHYLHGGPNGLGYRKWEVVRHAPESVSFSVRANEQDDGLPGDAKIDVTYTVNDRNQLIIEHHATCDTPGLLALTNHAYWNLDGSDTVAEHFLEMEADEFVEVDDTFCPTGAIRSVTDTGFDFRSGKQLKESGKDAEELLDLDNDLVITKKTP | not soluble
9 | NPVSKRSRGKGMLGGAKRAARTHRASGTAVEELVFPYEHPVPQVGTLTSVELTIPLMRDGVVVEGLPTLEESRAYLAQQLVTIPWEGLALSRDEPVLATRHVGFDQ | not soluble
10 | DIQMNQSPSSLSASLGDTITITCHASQNINVWLNWFQQKPGSIPKLLIYMASNLHTGVPSRFSGSGSGTGFTLTISSLQPEDIATYYCQQGQSFPLTFGGGTKLEIKRADAAPTVSIFPPSSEQLTSGGASVVCFLNNFYPKDINVKWKIDGSERQNGVLNSWTDQDSKDSTYSMSSTLTLTKDEYERHNSYTCEATHKTSTSPIVKSFNRN | soluble
11 | MSGFFQRLFGKDNKPAIARGPLGLHLNSGFTLDTLAFRLLEDELLIALPGEEFTVAAVSHIDLGGGSQIFRYYTSGDEFLQINTTGGEDIDDIDDIKLFVYEESYGISKESHWREAINAKAMGAMTLNWQEKRWQRFFNSEEPGNIEPVYMLEKVENQNHAKWEVHNFTMGYQRQVTEDTYEYLLLNGEESFNDLGEPEWLFSRALGVDIPLTSLHIIG | not soluble
12 | MTEKSIDLSVDIAGLRLSNPVIAASGTFGFGREFVDYVDLNKIGGISVKGLTLEKRQGNRPPRIAETPAGILNSVGLQNPGVRAFIENEIPFLRKYNTKIIANIAGNTIEDYCKMAELLSDADIDAIELNVSCPNVKKGCVAFGNSPAGISEITSKVKKYCKKPLIVKLTPNVTDIKEIAVAAEAAGADALSLINTILGMAIDIHRKRPILANNVGGLSGPAVKPIAVRMVYEVCSVVKIPVIGMGGISSGEDAVEFMLAGASAVMVGTANFINPAACIDVVEGIKNYLKMYNHGSVYEIIGKLQLN | not soluble
13 | KGKCVIFIIDGLGDRPNEKGLTPLKEAKTPTMDKIAKEGICGLMNAIDIGIRPGSDTAHLAILGYNPYEVYTGRGPLEAFGVGLDLKEGDIAFRCNFATVDENFVVLDRRAGRISPEEAEELEKEIDGLEIDGVKVIFKSSKGYRGALVLRGEGLSCRVSDGDPHEEGVKVSEIKPLDDSEEAKRTAEILNKLLKIVYEKLNNHPINEERRKKGLPPANIILPRGAGVVPKIEKFSEKYNMKGACICGTGLIKGMAKMIGLDVIEVEGATGTPKTNFMGKAKALVEALKEYDFVLVNVKGADEASHDGNYELKKEVLEKIDEMLAYVFEHINKDEVYFVLTGDHSTPIEMKDHSADPIPIVIWGKSVRVDDVTEFNEFACAKGALHWIKGEHVMKILLDLTG | not soluble
14 | MRGSHHHHHHMSDEEHTFETADAGSSATYPMQCSALRKNGFVVIKSRPCKIVDMSTSKTGKHGHAKVHLVAIDIFTGKKLEDLSPSTHNMEVPVVKRNEYQLLDIDDGFLSLMNMDGDTKDDVKAPEGELGDSLQTAFDEGKDLMVTIISAMGEEAAISFKEAARTD | soluble
15 | YIKVPVLRLKPSEIHINLKLLKKTADYSSVSALQQTMLYLGRLLVQSGVNTLGVDAVAAFNAASIIDSYVLAPGSSLASSVTTFSAQNRGGGKYDRIPRG | not soluble
16 | MESIGLVEVNSIARGIEAADAMLKAAQVDLLEAKPVCPGKYIVLICGDVAAVQSSVTAGKTMAAHSVLDDFILPNVHPQVLTAISAATPLTLIKALGIIETFSIASLIVAADTAAKTGQVDLVEIRIGMGIGGKSFVTLTGDVASVESSVAAGVMLASERGMLVDKVVIPSPHDHLKRCLC | soluble
17 | MSVRRLADDVYQPAEFSFTKENQIWVKNTIEKYPVGREQSAVIPLLMRAQEQDGWVTRAAIEHIAQILSMAYIRVLEIATFYTQFQLQPVGTKAHIQVCGTTPCMLRGSEELIKVCQKKIHHKPFVTNQDGSLSWEEVECLGACVNAPMVMIFKDTYEDLTAKRLEEIIDAFEAGKGAEIAVGPQNSRKSSEPISGLTSLIDEKEQKSLKSLKKKDKKEMGA | not soluble
18 | SGGRRSSWIKNWTLWKHFKDYFPIHLIKTQDLDPSHNYIFGFHPHGIMAVGAFGNFSVNYSDFKDLFPGFTSYLHVLPLWFWCPVFREYVMSVGLVSVSKKSVSYMVSKEGGGNISVIVLGGAKESLDAHPGKFTLFIRQRKGFVKIALTHGASLVPVVSFGENELFKQTDNPEGSWIRTVQNKLQKIMGFALPLFHARGVFQYNFGLMTYRKAIHTVVGRPIPVRQTLNPTQEQIEELHQTYMEELRKLFEEHKGKYGIPEHETLVLK | soluble
19 | MGSDKIHHHHHHMNNLDIKTLGQVFTPKKIVDFMLTLKHNHGSVLEPSAGDGSFLKRLKKAVRIEIDPKICPKNALCMDFFDYPLENQFDTIIGNPPYVKHKDIAPSTKEKLHYSLFDERSNLYLFFIEKAIKHLKPKGELIFITPRDFLKSTSSVKLNEWIYKEGTITHFFELGDQKVFPNAMPNCVIFRFCKGNFSRITNDGLQFLCKKGILYFLNQSYTQKLSEVFKVKVGAVSGCDKIFKNEKYGNLEFVTSITKRTNALEKMVFVNEPNDYLLQHKDSLMQRKIKKFNENNWFEWGRMHHISPKKRIYVNAKTHQKNPFFIHQCPNYDGSILALFPYNQNLDLQNLCDKLNAINWQELGFVCGGRFLFSQRSLENALLPKDFLNLG | not soluble
20 | MAGAAAAVAAGAAAGAAAAAVSVAAPGRASAPPPPPPVYCVCRQPYDVNRFMIECDICKDWFHGSCVGVEEHHAVDIDLYHCPNCAVLHGSSLMKKRRNWHRHDYTEIDDGSKPVQAGTRTFIKELRSRVFPSADEIIIKMHGSQLTQRYLEKHGFDVPIMVPKLDDLGLRLPSPTFSVMDVERYVGGDKVIDVIDVARQADSKMTLHNYVKYFMNPNRPKVLNVISLEFSDTKMSELVEVPDIAKKLSWVENYWPDDSVFPKPFVQKYCLMGVQDSYTDFHIDFGGTSVWYHVLWGEKIFYLIKPTDENLARYESWSSSVTQSEVFFGDKVDKCYKCVVKQGHTLFVPTGWIHAVLTSQDCMAFGGNFLHNLNIGMQLRCYEMEKRLKTPDLFKFPFFEAICWFVAKNLLETLKELREDGFQPQTYLVQGVKALHTALKLWMKKELVSEHAFEIPDNVRPGHLIKELSKVIRAIEEENGKPVKSQGI | soluble
21 | GSHMTYPKYLLSPETIEALRKPTFDVWLWEPNEMLSCLEHMYHDLGLVRDFSINPVTLRRWLFCVHDNYRNNPFHNFRHCFCVAQMMYSMVWLCSLQEKFSQTDILILMTAAICHDLDHPGYNNTYQINARTELAVRYNDISPLENHHCAVAFQILAEPECNIFSNIPPDGFKQIRQGMITLILATDMARHAEIMDSFKEKMENFDYSNEEHMTLLKMILIKCCDISNEVRPMEVAEPWVDCLLEEYFMQSDREKSEGLPVAPFMDRDKVTKATAQIGFIKFVLIPMFETVTKLFPMVEEIMLQPLWESRDRYEELKRIDDAMKELQKK | soluble
22 | MQNEGQYAEADALLLSLVAAKDAHLMGERTVLGLPRRLHAARLRLAKAEGDLVARIGYQYTLVPPPDMLAKYTQFSAEDRRMINRKSREDVPRLIHQIWIGEKAPPISVKAWAAHAARHGYDYRLWREADLEREGVFSNAIFNRMLSEGDYPGAVDVARYILLERFGGIYLDCDWYPARDDRSFDAFVPLAGLTAFDEKTPRDTGQGSMLLANSFIAAPAGHPVFRKMLDSFPGIIEEMPRAPAWWSTGPLIFTVIARAGSISLAPASFVAVTLADRAPLEEVEAIRRELATQDSGMLIAWKSWLEHHHHHH | soluble
23 | MGSDKIHHHHHHMLQQYHTKLKGTLALTDSYLTEKALQKEKGLYKFIWVRQGSITVEIDHQEMVLSKDDVISLTHLQHLEFKSIDGEYMTLLFNSNFYCIYGNDHEVSCSGFLFNGSSHLVRFTLNEEERRQLDQITEAMENEFTVSDSLQEEMLRILLKRFIIQCTRIARQRLDITREKESGFEIVRQYYNLVDEHYRTKKQVQDYADMLHKSPKTLSNIFSTCKLPSPLRVIHERVEAEAKRLLLYSNKSAKEIADILGFEDQASFSRFFKNMTGQSAVQFRNTEVGKN | not soluble
24 | MGHHHHHHSHSSPEREITLVNLKKDAKYGLGFQIIGGEKMGRLDLGIFISSVAPGGPADLDGCLKPGDRLISVNSVSLEGVSHHAAIEILQNAPEDVTLVISQPKEKISKVPSTPVHLTNEMKNYMKKSSYMQDSAIDSSSKDHHWSRGTLRHISENSFGPSGGLREGSLSSQDSRTESASLSQSQVNGFFASHLGDQ | not soluble
25 | MAHHHHHHMDTTTLKEADMNQMIIQLMEREKKKKKKKNIYEQKKMEPQNYSHMKKFKISPKEEKSLNKEEIKSHLINFFQEQEKIYKDEELNTKNYIIDETKKKEKEVYLNGYYIYCQDFKNEYNNYFNSFIKESEDIKKDLKDLQIQYMDDKILLGNKRKMELDNMLHFYKEKLLDIKNHWDTKNFCDDNLKNIVYDILNVIN | not soluble
